{"source": "patent US20210147561A1", "about": "(published 2021)", "binders": {"B1": {"name": "7G3_H1L1_Fab_His (XENP 13761) (antibody, V domains shown)", "VH": "QVQLVQSGAEVKKPGASVKVSCKASGYTFTDYYMKWVRQAPGQSLEWMGDIIPSNGATFYNQKFQGRVTMTVDRSTSTAYMELSSLRSEDTAVYYCTRSHLLRASWFAYWGQGTLVTVSS", "VL": "DFVMTQSPDSLAVSLGERATINCKSSQSLLNSGNQKNYLTWYQQKPGQPPKLLIYWASTRESGVPDRFTGSGSGTDFTLTISSLQAEDVAVYYCQNDYSYPYTFGGGTKLEIKR"}}, "key": {"[1]": {"target": "T1, CD123 (interleukin-3 receptor alpha, IL3RA) (human, UniProt P26951 19-378)", "T1 chain": "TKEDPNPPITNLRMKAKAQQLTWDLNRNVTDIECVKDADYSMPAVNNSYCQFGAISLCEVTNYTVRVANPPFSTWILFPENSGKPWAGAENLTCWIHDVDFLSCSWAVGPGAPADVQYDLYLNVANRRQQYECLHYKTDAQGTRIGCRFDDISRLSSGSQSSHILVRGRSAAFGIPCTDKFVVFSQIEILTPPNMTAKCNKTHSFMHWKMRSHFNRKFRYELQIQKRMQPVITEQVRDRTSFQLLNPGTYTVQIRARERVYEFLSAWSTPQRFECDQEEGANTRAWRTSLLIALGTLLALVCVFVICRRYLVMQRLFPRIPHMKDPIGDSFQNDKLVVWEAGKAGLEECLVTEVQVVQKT"}, "[2]": {"target": "T1, CD123 (interleukin-3 receptor alpha, …)"}}}
{"binder": "B1", "values": [{"measurement": "Ka", "setting": "[1]", "value": "4.81e+08", "unit": "M⁻¹"}, {"measurement": "Kd", "setting": "[2]", "value": 2.08, "unit": "nM"}]}
